The results in this text go back to the nanobody polyreactivity screen of Harvey et al. (2022).

The series in a line: yeast display, Sf9 membrane polyspecificity reagent, FACS + sequencing; frameworks hold sequencing errors. Put shortly: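 Using colony PCR, genes from sorted yeast display clones were amplified, then sequenced on MiSeq at 2 × 250 and filtered by CDR length. The clones had been stained with 10% biotinylated, detergent-solubilized Sf9 membrane reagent for 1 hour at 4 °C and sorted by FACS into low and high (top ~1%) gates on anti-HA and streptavidin fluorescence. Polyreactivity labels come from the gate of origin.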
For “QVQLVESGGGLVQAGGSLRLSCAASGFIFSIYAMGWYRQAPGKERELVAAISKSGGRTYYADSVKGRFTISRDNAKNTVYLQMNSLKPEDTAVYYCAVDPYYKYDYWGQGTQVTVSS”, the “polyreactivity (PSR sort gate)” value was “high polyreactivity”.
For the sequence “QVQLGESGGGLVQAGGSLRLSCAASGRIVRFYAMGWYRQAPGKERELVATISRSGGSTYYADSVKGRFTISRDNAKNTVNIQMNSLKPEDTAVYYCARLVGSRYGHWGQGTQVTVSS”, the “polyreactivity (PSR sort gate)” value is recorded as “high polyreactivity”.
Turning to “QVQLVESGGGLVQAGGSLRLSCAASGSTFAWYAMGWYRQAPGKERELVAVITSTGRTYYADSVKGRFTISRDNAKNTVYLQMNSLKPEDSAVYYCAAQYGGGYLKPYRREYWGQGTQVTVSS”, the “polyreactivity (PSR sort gate)” value was “high polyreactivity”.
Then “QVQLVESGGGLVQAGGSLRLSCAPSGIISIFNVMGWYRQAPGKERELVASITGRGGSTFYADSVKGRFTISRDNAKNTVYLQMNSLKPEDTAVYYCATDTGYTYPVTGLYDYWGQGTQVTVSS”, with “low polyreactivity”.
The result for “QVQLVESGGGLVQAGGSLRLSCAASGFTFWGYAMGWYRQAPGKERELVAGITRSGGNTYYADSVKGRFTISRDNAKNTVYLEMNSLKPEDSAVYYCAKRHFWNLTPYYFYRTIPDYYWGQGTQVTVSS” reads “high polyreactivity”; that for “QVQLVESGGGLVQAGGSLRLSCAASGSTFWYNAMGWYRQAPGKERELVAAITQSGTRTYYADSVKGRFTISRDNAKNTVFLQMNSLKPEDTAVYYCAAGNAPYYRYGSKKYGYWGQGTQVTVSS”, “high polyreactivity”.
Take “QVQLVESGGVLVQAGGSLRLSCAASGSTFVYNAMGWYRQAPGKERELVARISWSVTDTYYADSVKGRFTISRDNAKNTVYLQMNSLKPEDTAVYYCNTDVTYSHLVFGYDYWGQGTQVTVSS”: the “polyreactivity (PSR sort gate)” value is “low polyreactivity”.
On to “QVQLVESGGGLVQAGGSLRLSCAASGITFRYNAMGWYRQAPGKERELVAAITFSGGSTYYADSVKGRFTISRDNAKNTVDLQMNSLKPEDTAVYYCAKLGSTSSRGNYDYWGQGTQVTVSS”, for which the “polyreactivity (PSR sort gate)” value is listed as “low polyreactivity”.
Turning to “QVQLVESGGGLVQAGGSLRLSCAASGRTFYGYAMGWYRQAPGKERELVAAITYSGGRTYYADSVKGRFTISRDNAKNTVYLQMNSLKPEDTAVYYCNTGYWYVSLGSYDYYGEYDYWGQGTQVTVSS”, the “polyreactivity (PSR sort gate)” value is on record as “high polyreactivity”.
For the sequence “QVQLVESGGGLVQAGGSLRLSCAASGRISPKNAMGWNTQAPGKERELVATIRKIGGRTYYADSVKGRFTISRDNAKNTVYLQMNSLKPEDTAVYYCATDFAPSYYPDRFDYWGQGTQVTVSS”, the “polyreactivity (PSR sort gate)” value is “low polyreactivity”.
For the sequence “QFQLVESCGGLVQAGGTLRLSCAASGFIFDIYERGWYRQAPGKERELVAAITWNSGSTHYADSVKGRFTISRDNAKKTVYLQMNSLNPDDTAVYYCAAVEVTYAYYPYDYCGQGTQVTVSS”, the “polyreactivity (PSR sort gate)” value is reported as “low polyreactivity”.
Take “QDQLVESGGGIVQEGGSLRLSCAASGLIFRVYAMGWYRQAPGKEWELVATITRGGRTYYADSVKGRFTISRDNAKNTVYLQMNSLKPEDTAVSYCAVLSVRRSYNYWGQGTQVTVSS”: the “polyreactivity (PSR sort gate)” value is reported as “high polyreactivity”.
The result for “QVQLVESGGGLVQAGGSLRLSCAASGRIFPFYVMGWYRQAPGKERELVASIRGGGSTNYADSVKGRFTISRDNAKNTVYLQMNSLKPEDTAVYYCNAARRYRAPLYDYWGQGTQVTVSS” reads “high polyreactivity”.
The result for “QDQLVESGGGLLQAGGSLRLICAASGYTLQGYAMGSSRQATGKERELVAAISSNGGSTYYADSVKGRFTISRDNAKNTVYLEMNSLKPEDTAVYYCNAQYIVYYRYARITKYDYWGQGTQVTVSS” reads “high polyreactivity”; that for “QVQLVESGGGLVQAGGSLRLSCASSGYIYIVNAMGWYRQAPGKERELDAAINSSGGNTYYADSVKGRFTISRDNAKNTVYLQMNSLKPEDTGVYYCAADQAKDISFEYDYWGQGTQVTVSS”, “low polyreactivity”; that for “QVQLVDSGGGLVQAGGSLRLSCAASGRILYANAMGWYRQAPGKERELVAAIRYSDDSTYYADSVKGRFTISRDNAKNTVYLHMNSLKPEDTAVYYCNADYLRWDIWYWHGYDYWGQGTQVTVSS”, “high polyreactivity”.
Then “QVQLVESGGGLVQAGGSLRLSCAASGFIFGLYAMGWYRQAPGKERELVAAISSGGSTYYADSVKGRFTISRDNAKNTVYLQMNSLKPEDTAVYYCAAYYVYSEYDYWGQGTQVTVSS”, with “high polyreactivity”; and “QVQLVESGGGLVQAGGSLRLSCAASGRIFDNYVMGWYRQAPGKERELVAAISSGGGTYYADSVKGRFTISRDNAKNTVYLQMNSLKPEDTAVYYCAKRRVYDRSFGRYDYCGQGTQVTVSS”, with “low polyreactivity”; and “QVQLVESGGGLVQAGGSLRLSCAASGRIFQYNAMGWYRQAPGKERALVAAIRRGGGSTYYADSVKGRFTISRDNAKNTVYLQMNSLKPEDTAVYYCAARRKRVSFYPEYDYWGQGTQVTVSS”, with “low polyreactivity”.
Regarding “QVQLVESGGGLVQAGGRLRLSCAASGLIIEWYAMGWFRQAPGKERELVAAITGRGSSTFYADSVKGRFTISRDNAKNTVYLQMNSLKPEDTGVYYCAVATVKQYRSDYWGQGTQVTVSS”, the “polyreactivity (PSR sort gate)” value is “low polyreactivity”.
The result for “QVQLVESGGGLVQAGGSLRLSCAASGITFAYYVMGWYRQAPGKERELVAAISRSGSTYYADSVKGRFTISRDNAKNTVYLQMNSLKPEDTAVYYCAVLYIRWYTYEYWGQGTQVTVSS” reads “high polyreactivity”.
As for “QVQLVESGGGLVQAGGSLRVSCAASGSNFLGYTMGWYRQAPGKERELVAAINSSGGSTYYADSVKGRFTISRDNAKNNVYLQMNSLKPEDTAVYYCADANSILLFDSWGQGTQVTVSS”, the “polyreactivity (PSR sort gate)” value was “low polyreactivity”.
“QVQLVESGGGLVQAGGSLRLSCAASGSIFFRNAMGWYRQAPGKERELVAAITSGGGTYYADSVKGRLTISRDNAKNTVYLQMNSLKPEDTAVYYCAVVRGSRAIKHYYWGQGTQVTVSS”: the “polyreactivity (PSR sort gate)” value is “high polyreactivity”.
For “QVQLVESGGGLVQAGGSLRLSCAASGSILKPYAMGWYRQAPGKERELVARISSSGGRTYYADSVKGRFTISRDNAKNTFYFKMNSLKPEDTAVYYFAAAIVSYGRNDYWGQGTQVTVSS”, the “polyreactivity (PSR sort gate)” value is “high polyreactivity”.
For the sequence “QVQLVESGGGLVQAGGSLRLSCAASVFTIPRYAMGWYRQAPGKETELFAAITSGGSTYYADSVKGRFTISRDNAKNTVYLQMNSLKPEDTAVYYWASRAVWSSWGSRYDSWGHGTQVTVSS”, the “polyreactivity (PSR sort gate)” value was “high polyreactivity”.
Then “QVQLVESGGGLVQAGGSLRLSCAASGLTIRNYAMGWYRQAPGKERELVAAITVSGGSTYYADSVKGRFTISRDNAKNTVYLQMNSLKPEDTAVYYSSARVIHTTYSRNYYYWGQGTQVTVSS”, with “high polyreactivity”; and “QDQLVESGGGLVQAGGSLRLSCAASGSISWVYSMGWYRQAPGKEREFVAAISESGDTYYADSVKGRFTISRDNAKNTVYLQMNSLKPEDTAVYYCAATSPDGVTYDYWGHGTQVTVSS”, with “low polyreactivity”; and “QVQLVESGGGLVQAGGSLRLSCAASGLIFRYYAMGWYRQAPGKERELVATIRGGGSTYYADSVKGRFTISRDNAKNTVYLQMNSLKPEDTAVYYCAADPYSYGARGARGDYWGQGTQVTVSS”, with “low polyreactivity”.
For the sequence “QDQLVESGGGLVQAGGSLRLSCAASGRTFTVYAMGWYRPAPGKEREMVAAISRSGGRTYYADSVKGRFTISRDNAMNTVYLQRNSLKPEDTAVYYCAADVPYRTNDFDYWGQGTQVTVSS”, the “polyreactivity (PSR sort gate)” value was “high polyreactivity”.
For “QVQLVESGGGLVQAGGSLRLSCAASGRTYRWYVMGWYIQAPGTERELVAAISQSGGSTYYADSVKGRFTISRDNAMNTVYLEMYSLKPEDTAVYYCNAYPRYGGYAYGRGDYWGQGTQVTVSS”, the “polyreactivity (PSR sort gate)” value was “high polyreactivity”.
As to “QVQLVESGGGLVQAGGSLRLICAASGFIFSAYAMGWYRQAPGKERELVAAISYSGGTTYYADSVKGRFTISRDNAKNTVYLQMNSLKPEDTAVYYCAAGVGYWGQGTQVTVSS”, the “polyreactivity (PSR sort gate)” value is reported as “high polyreactivity”.
Consider “QVQLVESGGGRVHAGGSHRISCAASGSIFGRYAMGGYRQAPRQDREVVAAISSRGGSTYYADTVKGRFTISRDNAKNTVYLQMTSLKPEDTAFYYCAKENWCTSYYARYDDWGQGTQVTVSS”, for which the “polyreactivity (PSR sort gate)” value is on record as “high polyreactivity”.
As for “QVQLVESGGGLVQAGGILRLSCAASGRIFSRYAMGWYRQAPGKERELVAAISSSGTTTYYADSVKARFTISRDNAKNTVYLQMNSLKPEDTAVYYCAVEDRWYGPGYEYWGQGTQVTVSS”, the “polyreactivity (PSR sort gate)” value is “high polyreactivity”.
“QVQLVESGGGLVQAGGSLRLSCAASGIIFWYNAMGWYRQAPGKERELVAAISWSGGRTYYADSVKGRFTISRDNAKNTVYLQMNSLKPEDTAVYYCAAKVPRSSRSYGYWGQGTQVTVSS”: the “polyreactivity (PSR sort gate)” value is on record as “high polyreactivity”.
The result for “QVQLVESGGGLVQAGGSLRLSCAASGLTFVPYAMGWYRQAPGKERELVAAIDSGGRTNYADSVKGRFTISRDNAKNTVYLQMNSLKPEDTAVYYCAVEWLSYYDENDYWGQGTQVTVSS” reads “high polyreactivity”; that for “QVQLVESGGGLVQAGGSLRLSCAASGGIFQPNAMGWYRQAPGKERELVASISSDGSTNYADSVKGRFTISRDNAKNTVYLQMTSLKPEDTAVYYCAAAVKRGYAQSFISDGYGYWGQGTQVTVSS”, “low polyreactivity”.
Regarding “QVQLVESGGGLVQAGGSLRLSCAASGRIFSAYAMGWFRQAPGKERELLAAISKRGGRTYYADSVKGRFTISRDNATNTVYLQTNSLKPEDTSVYYCNKRYLDGHDLDYCGQGTQVTVSS”, the “polyreactivity (PSR sort gate)” value is recorded as “high polyreactivity”.
As for “QVQLVESGGGLVQAGGSLRLSCAASGRIFVINDMGWYRKATGKERELVAAITWGSSTYADSVKGRFTISRDNAKNTVYLQMNSLKPEDTAVYYCARDVYPSTWEYDYWGQGTQVTVSS”, the “polyreactivity (PSR sort gate)” value is reported as “low polyreactivity”.
The result for “QVQLVESGGGLVQPGGSLRLTCAAYGFIFGYNSMGWYSQAPGKERELVAAISSGGSTYYADSVNGLFTISRDNAKNTVYLQMNSVKPDDTAVYYCAVELGYPIQSDALWWDFEYWGQGTQVTVSS” reads “low polyreactivity”.
Turning to “QVQLVESGGGLVQAGGSLRLSCAASGRTFPHYAMGWYRQAPGKERELVAAITSGGTTNYADSVKGRFTISRDNEKNTVYLQLNSLKPEDTAVYYCNADMDLDTAWDGFVAYDYWGQGTQVTVSS”, the “polyreactivity (PSR sort gate)” value is recorded as “low polyreactivity”.
